Article PMC8265641, “Enterococcal PrgU Provides Additional Regulation of Pheromone-Inducible Conjugative Plasmids”

Columns and labels:
[1] = biological target: PrgU-His (PrgU with C-terminal His tag) (Enterococcus faecalis (plasmid pCF10)); assay: GEMMA (gas-phase electrophoretic mobility macromolecule analysis); main SEC peak of PrgU-His diluted to 0.01 mg/ml in 20 mM ammonium acetate, pH 7.8; self-association, dimer and monomer
[2] = biological target: PrgU-His (PrgU with C-terminal His tag) (Enterococcus faecalis (plasmid pCF10)); assay: SEC-MALS; 200 ul PrgU-His at 1 mg/ml on Superdex 200 10/300 GL Increase, 20 mM potassium phosphate pH 7.0, 150 mM NaCl; self-association, dimer
PrgU-His = PrgU-His (Enterococcus faecalis plasmid pCF10, UniProt Q5G3Q2 1-118); assay: MST; MST: 20 mM KPi pH 7.0, 150 mM NaCl, 0.05% Tween 20, 0.1 U/ul RNase inhibitor, ~25 C; EMSA: 20 min at ~25 C, 1% agarose run at 4 C, buffer as previously described (not given); details: protein: recombinant, tags: C-terminal 10xHis with 3C protease site

Molecule “PrgU-His (PrgU with C-terminal His tag) (natural protein)” has a stoichiometry N [1] of 2 and a stoichiometry N [2] of 2.

ACTCGTAAGAGCCGTGCAAACAACGTGTTGCATGGCTCTTTTTCTAC (ssDNA) [IRS2 ssDNA]: no binding (PrgU-His).

B1: IRS2 dsDNA (dsDNA)
DNA 1: ACTCGTAAGAGCCGTGCAAACAACGTGTTGCATGGCTCTTTTTCTAC
DNA 2: GTAGAAAAAGAGCCATGCAACACGTTGTTTGCACGGCTCTTACGAGT
B1: no binding (PrgU-His; blunt).

B2: IRS1 RNA (structured_RNA)
RNA: GGAGCAGCGGGGAAUGUAUACAGUUCAUGUAUAUGUUCCCCGCUUUUUUUG
B2: no binding (PrgU-His; hairpin).

B3: IRS1 ssDNA (ssDNA)
DNA: GGAGCAGCGGGGAATGTATACAGTTCATGTATATGTTCCCCGCTTTTTTTG
B3: no binding (PrgU-His).

B4: IRS1 dsDNA (dsDNA)
DNA 1: GGAGCAGCGGGGAATGTATACAGTTCATGTATATGTTCCCCGCTTTTTTTG
DNA 2: CAAAAAAAGCGGGGAACATATACATGAACTGTATACATTCCCCGCTGCTCC
B4: no binding (PrgU-His; blunt).

ACUCGUAAGAGCCGUGCAAACAACGUGUUGCAUGGCUCUUUUUCUAC (structured_RNA) [IRS2 RNA]: no binding (PrgU-His; hairpin).
